Biological target: T1, BCMA on BCMA-positive myeloma cell lines (NCI-H929, ARP-1, U266B1) (Homo sapiens (Human), UniProt Q02223 1-184)
T1 sequence: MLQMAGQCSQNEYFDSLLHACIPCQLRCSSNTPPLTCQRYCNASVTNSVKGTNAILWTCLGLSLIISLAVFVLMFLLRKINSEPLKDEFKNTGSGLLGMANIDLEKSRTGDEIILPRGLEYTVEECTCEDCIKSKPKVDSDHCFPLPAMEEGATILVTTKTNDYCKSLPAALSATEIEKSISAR
Experiment: cell-based or functional assay

B1: Antibody 2265-F02 (antibody, V domains shown)
VH: EVQLVESGGGLVQPGGSLRLSCAASGFNISAPGIHWVRQAPGKGLEWVGFINPAGGYTDYADSVKGRFTISADTSKNTAYLQMNSLRAEDTAVYYCARDYIRQYWTYVLDYWGQGTLVTVSS
VL: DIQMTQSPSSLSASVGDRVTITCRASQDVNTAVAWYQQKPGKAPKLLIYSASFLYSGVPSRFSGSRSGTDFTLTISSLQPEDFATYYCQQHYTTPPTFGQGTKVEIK
  ARP-1, Conjugate M 2° antibody cell killing, EC50: 1.9 nM
  U266B1, Conjugate M 2° antibody cell killing, EC50: 0.9 nM

From patent publication US20240299570A1 (CELGENE, published 2024)
